Test results as given in patent US20090136936A1 (RESEARCH DEVELOPMENT FOUNDATION, published 2009).

B18: Recombinant human FcγRI/CD64, extracellular domain, glycosylated (receptor, UniProt P12314 16-292, looked up)
chain: QVDTTKAVITLQPPWVSVFQEETVTLHCEVLHLPGSSSTQWFLNGTATQTSTPSYRITSASVNDSGEYRCQRGLSGRSDPIQLEIHRGWLLLQVSSRVFTEGEPLALRCHAWKDKLVYNVLYYRNGKAFKFFHWNSNLTILKTNISHNGTYHCSGMGKHRYTSAGISVTVKELFPAPVLNASVTSPLLEGNLVTLSCETKLLLQRPGLQLYFSFYMGSKTLRGRNTSSEYQILTARREDSGLYWCEAATEDGNVLKRSPELELQVLGLQLPTPVWFH
notes: extracellular domain; also called FcγRIa; FcγRIa-FITC

Key:
[1] = target: B18; experiment: flow cytometry of spheroplasts displaying the Fc, labelled with FcγRIa-FITC [panel b]
[2] = target: B18; experiment: SPR (BIAcore 3000), FcγRIa immobilized on CM-5
[3] = target: B18; experiment: flow cytometry of spheroplasts displaying the Fc clone, labelled with FcγRIa-FITC; the value is repeated on D00019 and D00020
[4] = target: T1, extracellular domain of aglycosylated FcγRIIIa purified from E. coli inclusion bodies, FITC-labeled (human, UniProt P08637 17-208); experiment: flow cytometry of spheroplasts displaying the Fc, labelled with FcγRIIIa-FITC
T1 construct: extracellular domain; also called FcγRIIIa-FITC

BSA = target: T2, BSA (Bos taurus, UniProt P02769); experiment: fluorescence ELISA: BSA coated wells, FITC labeled FcγRIa serially diluted 4-fold [panel b]
T2 construct: also called BSA coated

Protein A-FITC = Protein A-FITC (Staphylococcus aureus, UniProt P38507 37-477); experiment: flow cytometry of spheroplasts, PMT 700V, TB with 0.5M trehalose, labeling with Protein A-FITC [panel a]

T1 sequence (P08637 17-208): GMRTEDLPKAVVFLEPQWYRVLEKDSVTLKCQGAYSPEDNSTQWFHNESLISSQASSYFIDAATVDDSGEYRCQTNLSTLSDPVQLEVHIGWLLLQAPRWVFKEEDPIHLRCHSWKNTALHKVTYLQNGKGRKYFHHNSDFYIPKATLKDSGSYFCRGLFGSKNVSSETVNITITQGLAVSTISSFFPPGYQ
T2 sequence (P02769 25-607 limits assumed): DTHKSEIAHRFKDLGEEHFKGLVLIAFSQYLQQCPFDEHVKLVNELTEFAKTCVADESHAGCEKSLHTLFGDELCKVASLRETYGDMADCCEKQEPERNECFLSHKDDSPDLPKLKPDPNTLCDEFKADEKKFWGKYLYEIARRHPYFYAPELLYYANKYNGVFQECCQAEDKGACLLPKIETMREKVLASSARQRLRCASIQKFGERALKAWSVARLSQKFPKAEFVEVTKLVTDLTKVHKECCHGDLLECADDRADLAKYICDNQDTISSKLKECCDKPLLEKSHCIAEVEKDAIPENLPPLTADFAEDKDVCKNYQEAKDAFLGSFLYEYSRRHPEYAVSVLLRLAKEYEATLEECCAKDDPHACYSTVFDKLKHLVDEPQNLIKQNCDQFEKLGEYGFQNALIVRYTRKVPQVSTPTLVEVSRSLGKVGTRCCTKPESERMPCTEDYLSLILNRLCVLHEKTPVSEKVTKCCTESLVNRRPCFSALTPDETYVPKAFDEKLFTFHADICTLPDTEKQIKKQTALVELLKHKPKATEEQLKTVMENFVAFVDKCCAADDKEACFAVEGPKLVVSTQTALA

B1: Fc12 (N361D, E382V, M428I), aglycosylated Fc mutant (other)
chain: DKTHTCPPCPAPELLGGPSVFLFPPKPKDTLMISRTPEVTCVVVDVSHEDPEVKFNWYVDGVEVHNAKTKPREEQYNSTYRVVSVLTVLHQDWLNGKEYKCKVSNKALPAPIEKTISKAKGQPREPQVYTLPPSRDELTKDQVSLTCLVKGFYPSDIAVEWVSNGQPENNYKTTPPVLDSDGSFFLYSKLTVDKSRWQQGNVFSCSVIHEALHNHYTQKSLSLSPGK
[1]
  M (mean fluorescence intensity): 307

B2: Fc20 (N361D, F372L, E382V, M428I), aglycosylated Fc mutant (other)
chain: DKTHTCPPCPAPELLGGPSVFLFPPKPKDTLMISRTPEVTCVVVDVSHEDPEVKFNWYVDGVEVHNAKTKPREEQYNSTYRVVSVLTVLHQDWLNGKEYKCKVSNKALPAPIEKTISKAKGQPREPQVYTLPPSRDELTKDQVSLTCLVKGLYPSDIAVEWVSNGQPENNYKTTPPVLDSDGSFFLYSKLTVDKSRWQQGNVFSCSVIHEALHNHYTQKSLSLSPGK
[1]
  M (mean fluorescence intensity): 295

B3: Fc23 (H310Y, K322R, T350A, E382V, S426T, S442P), aglycosylated Fc mutant (other)
chain: DKTHTCPPCPAPELLGGPSVFLFPPKPKDTLMISRTPEVTCVVVDVSHEDPEVKFNWYVDGVEVHNAKTKPREEQYNSTYRVVSVLTVLYQDWLNGKEYKCRVSNKALPAPIEKTISKAKGQPREPQVYALPPSRDELTKNQVSLTCLVKGFYPSDIAVEWVSNGQPENNYKTTPPVLDSDGSFFLYSKLTVDKSRWQQGNVFSCTVMHEALHNHYTQKSLPLSPGK
[1]
  M (mean fluorescence intensity): 335

B4: Fc49 (C229R, E382V, M428I), aglycosylated Fc mutant (other)
chain: DKTHTCPPRPAPELLGGPSVFLFPPKPKDTLMISRTPEVTCVVVDVSHEDPEVKFNWYVDGVEVHNAKTKPREEQYNSTYRVVSVLTVLHQDWLNGKEYKCKVSNKALPAPIEKTISKAKGQPREPQVYTLPPSRDELTKNQVSLTCLVKGFYPSDIAVEWVSNGQPENNYKTTPPVLDSDGSFFLYSKLTVDKSRWQQGNVFSCSVIHEALHNHYTQKSLSLSPGK
notes: also called aglycosylated-Fc49
[2]
  Kd: 92 nM
  koff: 0.0023 s⁻¹
  kon: 25000 M⁻¹ s⁻¹
[1]
  M (mean fluorescence intensity): 409

B5: Fc100 (other)
Fc chain: DKTHTCPPCPAPELLGGPSVFLFPPKPKDTLMISRTPEVTCVVVDVSHEDPEVKFNWYVDGVEVHNAKTKPREEQYNSTYRVVSVLTVLHQDWLNGKEYKCKVSNKALPAPIEKTISKAKGQPREPQVYTLPPSRDELTKNQVSLTCLVKGFYPSDIAVTWMSEGQPENNYKTTPPVLDSDGSFFLYSKLTVDKSRWQQGNVFSCSVMHEALHNHYTQKSLSLSPGK
[3]
  FACS mean value: 138

B6: Fc102 (other)
Fc chain: DKTHTCPPCPAPELLGGPSVFLFPPKPKDTLMISRTPEVTCVVVDVSHEDPEVKFNWYVDGVEVHNAKTKPREEQYNSTYRVVSVLTVLHQDWLNGKEYKCKVSNKALPAPIEKTISKAKGQPREPQVYTLPPSRDELTKDQVSLTCLVKGFYPSDIAVEWVSNGQPENNYKTTPPVLDSDGSFFLYSKLTVDKSRWQQGNVFSCSVIHEALHNHYTQKSLSLSPGK
[3]
  FACS mean value: 374

B7: Fc106 (E382T, N384D, M428I), aglycosylated Fc mutant (other)
chain: DKTHTCPPCPAPELLGGPSVFLFPPKPKDTLMISRTPEVTCVVVDVSHEDPEVKFNWYVDGVEVHNAKTKPREEQYNSTYRVVSVLTVLHQDWLNGKEYKCKVSNKALPAPIEKTISKAKGQPREPQVYTLPPSRDELTKNQVSLTCLVKGFYPSDIAVEWTSDGQPENNYKTTPPVLDSDGSFFLYSKLTVDKSRWQQGNVFSCSVIHEALHNHYTQKSLSLSPGK
[3]
  FACS mean value: 269

B8: Fc114 (N361S, E382V, M428I), aglycosylated Fc mutant (other)
chain: DKTHTCPPCPAPELLGGPSVFLFPPKPKDTLMISRTPEVTCVVVDVSHEDPEVKFNWYVDGVEVHNAKTKPREEQYNSTYRVVSVLTVLHQDWLNGKEYKCKVSNKALPAPIEKTISKAKGQPREPQVYTLPPSRDELTKSQVSLTCLVKGFYPSDIAVEWVSNGQPENNYKTTPPVLDSDGSFFLYSKLTVDKSRWQQGNVFSCSVIHEALHNHYTQKSLSLSPGK
[3]
  FACS mean value: 370

B9: Fc143 (P238S, E382V, S426V, M428L, E430H), aglycosylated Fc mutant (other)
chain: DKTHTCPPCPAPELLGGSSVFLFPPKPKDTLMISRTPEVTCVVVDVSHEDPEVKFNWYVDGVEVHNAKTKPREEQYNSTYRVVSVLTVLHQDWLNGKEYKCKVSNKALPAPIEKTISKAKGQPREPQVYTLPPSRDELTKNQVSLTCLVKGFYPSDIAVEWVSNGQPENNYKTTPPVLDSDGSFFLYSKLTVDKSRWQQGNVFSCVVLHHALHNHYTQKSLSLSPGK
[3]
  FACS mean value: 211

B10: Fc147 (other)
Fc chain: DKTHTCPPRPAPELLGGPSVFLFPPKPKDTLMISRTPEVTCVVVDVSHEDPEVKFNWYVDGVEVHNAKTKPREEQYNSTYRVVSVLTVLHQDWLNGKEYKCKVSNKALPAPIEKTISKAKGQPREPQVYTLPPSRDELTKNQVSLTCLVKGFYPSDIAVEWVSNGQPENNYKTTPPVLDSDGSFFLYSKLTVDKSRWQQGNVFSCSVIHEALHNHYTQKSLSLSPGK
[3]
  FACS mean value: 464

B11: Fc149 (E380D, E382V, N384R, S426V, M428L, E430D), aglycosylated Fc mutant (other)
chain: DKTHTCPPCPAPELLGGPSVFLFPPKPKDTLMISRTPEVTCVVVDVSHEDPEVKFNWYVDGVEVHNAKTKPREEQYNSTYRVVSVLTVLHQDWLNGKEYKCKVSNKALPAPIEKTISKAKGQPREPQVYTLPPSRDELTKNQVSLTCLVKGFYPSDIAVDWVSRGQPENNYKTTPPVLDSDGSFFLYSKLTVDKSRWQQGNVFSCVVLHDALHNHYTQKSLSLSPGK
[3]
  FACS mean value: 140

B12: Fc151 (E382V, S426I, M428L, E430S), aglycosylated Fc mutant (other)
chain: DKTHTCPPCPAPELLGGPSVFLFPPKPKDTLMISRTPEVTCVVVDVSHEDPEVKFNWYVDGVEVHNAKTKPREEQYNSTYRVVSVLTVLHQDWLNGKEYKCKVSNKALPAPIEKTISKAKGQPREPQVYTLPPSRDELTKNQVSLTCLVKGFYPSDIAVEWVSNGQPENNYKTTPPVLDSDGSFFLYSKLTVDKSRWQQGNVFSCIVLHSALHNHYTQKSLSLSPGK
[3]
  FACS mean value: 326

B13: Fc152 (H224R, E382V, S426T, M428S, E430P), aglycosylated Fc mutant (other)
chain: DKTRTCPPCPAPELLGGPSVFLFPPKPKDTLMISRTPEVTCVVVDVSHEDPEVKFNWYVDGVEVHNAKTKPREEQYNSTYRVVSVLTVLHQDWLNGKEYKCKVSNKALPAPIEKTISKAKGQPREPQVYTLPPSRDELTKNQVSLTCLVKGFYPSDIAVEWVSNGQPENNYKTTPPVLDSDGSFFLYSKLTVDKSRWQQGNVFSCTVSHPALHNHYTQKSLSLSPGK
[3]
  FACS mean value: 173

B14: Fc217 (LGDGSPCKAN insertion between N297 and S298), aglycosylated Fc mutant (other)
chain: DKTHTCPPCPAPELLGGPSVFLFPPKPKDTLMISRTPEVTCVVVDVSHEDPEVKFNWYVDGVEVHNAKTKPREEQYNLGDGSPCKANSTYRVVSVLTVLHQDWLNGKEYKCKVSNKALPAPIEKTISKAKGQPREPQVYTLPPSRDELTKNQVSLTCLVKGFYPSDIAVEWESNGQPENNYKTTPPVLDSDGSFFLYSKLTVDKSRWQQGNVFSCSVMHEALHNHYTQKSLSLSPGK
[4]
  M (mean fluorescence intensity): 500

B15: Fc207 (QLISHYRHLT insertion between N297 and S298), aglycosylated Fc mutant (other)
chain: DKTHTCPPCPAPELLGGPSVFLFPPKPKDTLMISRTPEVTCVVVDVSHEDPEVKFNWYVDGVEVHNAKTKPREEQYNQLISHYRHLTSTYRVVSVLTVLHQDWLNGKEYKCKVSNKALPAPIEKTISKAKGQPREPQVYTLPPSRDELTKNQVSLTCLVKGFYPSDIAVEWESNGQPENNYKTTPPVLDSDGSFFLYSKLTVDKSRWQQGNVFSCSVMHEALHNHYTQKSLSLSPGK
[4]
  M (mean fluorescence intensity): 143

B16: Fc209 (F241L, K326E, EVPLVWMWVS insertion between N297 and S298), aglycosylated Fc mutant (other)
chain: DKTHTCPPCPAPELLGGPSVLLFPPKPKDTLMISRTPEVTCVVVDVSHEDPEVKFNWYVDGVEVHNAKTKPREEQYNEVPLVWMWVSSTYRVVSVLTVLHQDWLNGKEYKCKVSNEALPAPIEKTISKAKGQPREPQVYTLPPSRDELTKNQVSLTCLVKGFYPSDIAVEWESNGQPENNYKTTPPVLDSDGSFFLYSKLTVDKSRWQQGNVFSCSVMHEALHNHYTQKSLSLSPGK
[4]
  M (mean fluorescence intensity): 291

B17: Fc216 (WQVFNKYTKP insertion between N297 and S298), aglycosylated Fc mutant (other)
chain: DKTHTCPPCPAPELLGGPSVFLFPPKPKDTLMISRTPEVTCVVVDVSHEDPEVKFNWYVDGVEVHNAKTKPREEQYNWQVFNKYTKPSTYRVVSVLTVLHQDWLNGKEYKCKVSNKALPAPIEKTISKAKGQPREPQVYTLPPSRDELTKNQVSLTCLVKGFYPSDIAVEWESNGQPENNYKTTPPVLDSDGSFFLYSKLTVDKSRWQQGNVFSCSVMHEALHNHYTQKSLSLSPGK
[4]
  M (mean fluorescence intensity): 496

## B18
BSA
  binding result: no binding

B19: dsbA-FcγRIIa-His (receptor, Homo sapiens, UniProt P12318 34-217, looked up)
receptor chain: QAAAPPKAVLKLEPPWINVLQEDSVTLTCQGARSPESDSIQWFHNGNLIPTHTQPSYRFKANNNDSGEYTCQTGQTSLSDPVHLTVLSEWLVLQTPHLEFQEGETIMLRCHSWKDKPLVKVTFFQNGKSQKFSHLDPTFSIPQANHSHSGDYHCTGNIGYTLFSSKPVTITVQVPSMGSSSPMG
notes: soluble mature form, exported to the E. coli periplasm by the dsbA signal; also called product of pTrcdsbAHis-FcγRIIa
Protein A-FITC
  binding result: no binding
